Experimental data taken from doi:10.1101/577536.

Molecular target: fusion protein containing the GS120 linker
Assay: FRET or BRET

**Q.** Which fold shift of the titration midpoint against the WT MBD2 peptide does the source give for V227A MBD2 peptide here?
**A.** 30 fold
